Here are results for two molecules from patent US20200347139A1 (INHIBRX BIOSCIENCES, published 2020).

Experiment [1] deals with T1, mFc-CLEC12a-ECD (human).
T1 construct: It was immobilized on anti-mFc capture sensors for BLI; also called CLEC12a antigen
T1 chain: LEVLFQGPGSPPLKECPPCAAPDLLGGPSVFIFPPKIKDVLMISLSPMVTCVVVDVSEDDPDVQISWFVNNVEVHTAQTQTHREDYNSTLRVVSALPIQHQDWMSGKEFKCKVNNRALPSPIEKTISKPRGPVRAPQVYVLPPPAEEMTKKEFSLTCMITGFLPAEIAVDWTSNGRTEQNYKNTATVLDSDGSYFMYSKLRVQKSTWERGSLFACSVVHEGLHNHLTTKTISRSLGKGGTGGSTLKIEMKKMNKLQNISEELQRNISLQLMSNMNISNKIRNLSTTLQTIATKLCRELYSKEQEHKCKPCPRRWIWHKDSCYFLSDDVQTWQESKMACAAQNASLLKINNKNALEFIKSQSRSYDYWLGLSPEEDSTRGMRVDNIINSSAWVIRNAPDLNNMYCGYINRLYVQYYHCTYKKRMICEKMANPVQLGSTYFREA
Put plainly: BLI, mFc-CLEC12a-ECD on anti-mFc sensors first loaded with 100 nM hzMB11v13, then 100 nM second sdAb. As to the method: (§1) The epitopes of single domain antibodies (sdAbs) that comprise VHH domains that bind CLEC12a were compared using Bio-Layer Interferometry. 7 μg/mL of mFc-CLEC12a-ECD (SEQ ID NO: 87) was immobilized on anti-mFc coated capture sensors. 100 nM of one sdAb was then loaded onto the CLEC12a antigen and allowed to come to equilibrium. The sensors were then transferred into 100 nM of a second sdAb.
On the technique in general: In BLI a coated tip is dipped into the sample, and binding shifts an interference pattern.

Experiment [2] deals with T2, human CLEC12a expressed on transiently transfected HEK 293 cells (human, UniProt Q5QGZ9 1-265).
T2 construct: also called CLL-1; CLL1
T2 sequence: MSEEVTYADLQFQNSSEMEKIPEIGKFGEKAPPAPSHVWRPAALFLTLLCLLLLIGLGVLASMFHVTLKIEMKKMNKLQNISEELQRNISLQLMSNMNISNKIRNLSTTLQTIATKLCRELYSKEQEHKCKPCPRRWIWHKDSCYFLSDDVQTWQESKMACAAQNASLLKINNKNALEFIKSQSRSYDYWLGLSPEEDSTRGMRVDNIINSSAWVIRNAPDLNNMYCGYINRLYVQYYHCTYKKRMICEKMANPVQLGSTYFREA
Put plainly: flow cytometry on HEK 293 cells transfected with human CLEC12a; apparent Kd, one-site fit. On the procedure: (§2) Binding of sdAbs to human CLEC12a was assessed by flow cytometry. […] HEK 293 cells were transiently transfected with a plasmid encoding CLEC12a (UniProt Accession No. Q5QGZ9.3; SEQ ID NO: 1) and used as the positive cell line, and untransfected HEK 293 cells were used as CLEC12a-negative cells. Each cell type was plated at 30,000 cells/well in FACS buffer (PBS 1% BSA, 0.1% NaN₃ pH 7.4) on a 96-well round-bottom plate. The sdAbs were diluted in FACS buffer in a 3-fold, 11 point serial dilution. The sdAb dilutions were added to the plated cells, and assay plates were incubated for 30 minutes at 4° C. After washing twice in 150 μL of FACS buffer, cells in each well were resuspended in 100 μL of 1:2000 Alexa Fluor 647-conjugated Anti-Human IgG secondary diluted in FACS buffer and incubated at 4° C. for 30 minutes. The cells were washed twice more, then bound antibody was detected by flow cytometry.
(§3) Flow cytometric analysis was performed on an Intellicyte iQue Plus and fluorescence was plotted as median fluorescence intensity. The apparent affinity (Kd, nM) was determined using one site binding non-linear regression in PRISM graph software.
For orientation: A flow cytometer gives signals particle by particle.

In experiment [3] the target is T2, human CLEC12a expressed on transiently …. Put plainly: flow cytometry on HEK 293 cells transiently transfected with human CLEC12a, Alexa Fluor 647 anti-human IgG secondary, median fluorescence. On the procedure: as §2, §3
Experiment [4] has as its target T1, mFc-CLEC12a-ECD. As to the kind of experiment: BLI, mFc-CLEC12a-ECD captured on anti-mFc sensors, 100 nM sdAb as first sdAb. As to the method: as §1

B1: hzME02v4 sdAb (VHH hzME02v4 fused to human IgG1 xELL Fc) (Fc fusion)
chain: EVQLVESGGGEVQPGGSLRLSCAASGRTFEYDDMVWFRQAPGKEREEVAGISWSGGSIYYAESVKGRFSISRDNAKNTVYLEMNRLKPEDTAVYYCNVGSYWGQGTLVTVDKTHTCPPCPAPGGPSVFLFPPKPKDTLMISRTPEVTCVVVDVSHEDPEVKFNWYVDGVEVHNAKTKPREEQYNSTYRVVSVLTVLHQDWLNGKEYKCKVSNKALPAPIEKTISKAKGQPREPQVYTLPPSRDELTKNQVSLTCLVKGFYPSDIAVEWESNGQPENNYKTTPPVLDSDGSFFLYSKLTVDKSRWQQGNVFSCSVMHEALHNHYTQKSLSLSPGK
notes: Humanized version of ME02; No linker is stated; also called hzME02v4-IgG1
On to B1, for which the binding result in experiment [1] was “binds”. For the same molecule, the Kd in experiment [2] was determined as 0.87 nM. The EC50 (read off the curve) – broadly, the concentration at which the effect is half-maximal – in experiment [3] is about 0.8 nM.

B2: hzMB11v13 sdAb (VHH hzMB11v13 fused to human IgG1 xELL Fc) (Fc fusion)
chain: EVQLVESGGGEVQPGGSLRLSCAASGFLFSIYDMNWYRQAPGKEREWVAGITNNGYSTAYAESVKGRFTISRDNAKNTIYLQMSSLRAEDTAVYYCHADLTKAYDVEYAWGQGTLVTVDKTHTCPPCPAPGGPSVFLFPPKPKDTLMISRTPEVTCVVVDVSHEDPEVKFNWYVDGVEVHNAKTKPREEQYNSTYRVVSVLTVLHQDWLNGKEYKCKVSNKALPAPIEKTISKAKGQPREPQVYTLPPSRDELTKNQVSLTCLVKGFYPSDIAVEWESNGQPENNYKTTPPVLDSDGSFFLYSKLTVDKSRWQQGNVFSCSVMHEALHNHYTQKSLSLSPGK
notes: Humanized version of MB11; No linker is stated; also called hzMB11v13-IgG1
Take B2: the binding result in experiment [4] is given as “binds”. In experiment [2], the Kd was 0.3 nM.
